This is an account of results in the nanobody polyreactivity screen of Harvey et al. (2022).

This series can be described thus: yeast display, Sf9 membrane polyspecificity reagent, FACS + sequencing; frameworks hold sequencing errors. In a few lines:
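Nanobodies came from a synthetic yeast display library in Saccharomyces cerevisiae BJ5465, induced with galactose for 36–48 hours and stained for 1 hour at 4 °C with 10% biotinylated, detergent-solubilized Sf9 membrane reagent. Cells were enriched on streptavidin microbeads and then FACS-sorted, with low and high (top ~1%) gates set on anti-HA fluorescence for expression and streptavidin fluorescence for reagent binding. Each polyreactivity label reflects the gate a clone came from. Genes were amplified by colony PCR, sequenced by MiSeq 2 × 250 and filtered by CDR length.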
Turning to “QVQLVESGGLLVQAGGSLRLTCAASGSTFGRNAMGWYRQATGKERQLVAAITASGGTTYYADSVKGRFTISRDNAKNTVYLHMNSLKPEDTAVYDCARAGHFSFKYDYWGQGTQVTVSS”, the “polyreactivity (PSR sort gate)” value was “low polyreactivity”.

“QVQLVESGGRIVQAGGSLRLSCAASGIIFYLYTMGWYRQAPGKERQFVADISSGTTTYYADSVKGRFTISRDNAKNTVYLQMNSLKPADSAVYYCAAQLFRELYWGQGTQVTVSS”: the “polyreactivity (PSR sort gate)” value is listed as “high polyreactivity”.

In the case of “QVQLVESGGRKVQAGGSLRLICAASGSIFYAYTMGRYRQAPGKERELSTYADSVKGRFTISRDNAKNTVYLQMNSLKPEDTAVYYCNARFYKKTLSYRVKYRMEYWGQGTQVTVSS”, the “polyreactivity (PSR sort gate)” value is “low polyreactivity”.

“QVQLVESGGRLFQAGGSLRLSCAASGRNFCRYVMGWYRQAPGKERELVATISSGGSTNYADSVKGRFTISRDNAKNTVYLQMNSMKTEVTAVYYSAAYIYDGFWVYPYYPYDYWGQGTQVTVSS”: the “polyreactivity (PSR sort gate)” value is reported as “low polyreactivity”.

For the sequence “QVQLVESGGRLGQAGGSLRLRCAASGYNFGTYDMGWYRPAPGKERELVAAISIGGSTNYADSVKGRFTISRDNAKNTVYLQMNSLKPEDTAVYYCAAEVNVGTLLLSVIVEDGDYWGQGTEVTVSS”, the “polyreactivity (PSR sort gate)” value is given as “low polyreactivity”.

On to “QVQLVESGGRLVKAGGSLRLSCPASGRIFADYAMGWYRQAPGKESELVADIRRSGGRTYYADSVKGRFTISRDNAKNTVYIQMNSLKPEDTAVYYCATDYGSWGDYSGNYDYWGQGTQVTVSS”, for which the “polyreactivity (PSR sort gate)” value is given as “low polyreactivity”.

For “QVQLVESGGRLVQAGGILRLSCAASGSTFDKNAMGWYRQAPGKERQLVAAINNGGGTTYYADSVKGRFTISRDNAKNTVYLQMNSLKPEDTAVYYCAAVGKAYWSDYQYRYYYWGQGTQVTVSS”, the “polyreactivity (PSR sort gate)” value was “low polyreactivity”.

Regarding “QVQLVESGGRLVQAGGRLRLRSAASGFTFSRNAMGWYRQAPGKERELVAAIDSGGSTDYAVSVKGRFTISRDNAKNTVYLQMNSLKPADTAVYYCAKASSATRYVQLRQDYDYWGQGTQVTVSS”, the “polyreactivity (PSR sort gate)” value is “low polyreactivity”.

Consider “QVQLVESGGRLVQAGGSLRISRAASGFTFPSYTMGWYRQAPGKERELVAAITSSGGNTYYADSVKGRFTISRDNAKNTVYLQMNSLKPEVTAVYYCATVSVRWPSNDHVRYDYWGQGTQVTVSS”, for which the “polyreactivity (PSR sort gate)” value is listed as “low polyreactivity”.

Turning to “QVQLVESGGRLVQAGGSLRLICADSGGIFGRYAMGWSRQAHGKERELVAAISKNGDSTYYAYSVKGRFTISRDNAKNTVYLKMNSLKPEDTAVYYCAAAKYRPKYGKNDYLGQGTQVTVSS”, the “polyreactivity (PSR sort gate)” value was “low polyreactivity”.

Take “QVQLVESGGRLVQAGGSLRLRCAASGFIFGWYTMGWYRQAPGKERELVASISRSGGSTYYADSVKGRFTISRDNEKNTVYVQMNSLKPEDTAVSYCAKRSLVDAHGYWGQGTQVTVSS”: the “polyreactivity (PSR sort gate)” value is listed as “high polyreactivity”.

For “QVQLVESGGRLVQAGGSLRLSCAASGFIFAYNAMGWYRQAPGKERELVAAISWSGGSTYYADSVKGRFTISRDNAKNTVYLQMNSLKPEDTAVSYCNKYIRYPFKRYGYWGQGTQVTVSS”, the “polyreactivity (PSR sort gate)” value was “high polyreactivity”.

Turning to “QVQLVESGGRLVQAGGSLRLSCAASGFIFGTYAMGWYRQAPGKEREFVAAITRSGSSTYYADSVKGRFTISRDNAKNTVYLQMNSLKPEDTAVYYCAADLTRGRFRYYYWGQGTQVTVSS”, the “polyreactivity (PSR sort gate)” value is “high polyreactivity”.

“QVQLVESGGRLVQAGGSLRLSCAASGFIFVGNDMAWYRQAPGKVRELVAAISSGGTTNYADSVKGRFTNSRDNAKNTVYLQMNSLKPEDTAVYDCAADYDYRQGYDSVHLDYWGQGTQVTVSS”: the “polyreactivity (PSR sort gate)” value is “low polyreactivity”.

As to “QVQLVESGGRLVQAGGSLRLSCAASGFIFYSYDMGWYRQAPGKERELVAAIDSRGVNTYYADSVKGRFTISRDNAKNTVYLQMNSLKPEDTAVYYCAAEVVYPVYEYDYWGQGTQVTVSS”, the “polyreactivity (PSR sort gate)” value is recorded as “low polyreactivity”.

Regarding “QVQLVESGGRLVQAGGSLRLSCAASGFIISFNAMGWYRQATGKERELVATISGGGGSTYYADSVKGRFTISRDKAKNTVYLQMKSLKPEDTAVYYCAKSYRYRGDYWGQGTQVTVSS”, the “polyreactivity (PSR sort gate)” value is “high polyreactivity”.
